Reference: patent publication US8093037B2, “Engineered microorganisms with enhanced fermentation activity” (Verdezyne, Inc., priority 2009, dated 2012)
Several values for one entry are separate records, joined by “and”; a condition that tells them apart may be missing. Equal entries are not always repeated.

B1: XI-R: native xylose isomerase of Ruminococcus flavefaciens strain 17, SEQ ID NO: 31 (protein, listed as Ruminococcus flavefaciens)
chain: MEFFSNIGKIQYQGPKSTDPLSFKYYNPEEVINGKTMREHLKFALSWWHTMGGDGTDMFGCGTTDKTWGQSDPAARAKAKVDAAFEIMDKLSIDYYCFHDRDLSPEYGSLKATNDQLDIVTDYIKEKQGDKFKCLWGTAKCFDHPRFMHGAGTSPSADVFAFSAAQIKKALESTVKLGGNGYVFWGGREGYETLLNTNMGLELDNMARLMKMAVEYGRSIGFKGDFYIEPKPKEPTKHQYDFDTATVLGFLRKYGLDKDFKMNIEANHATLAQHTFQHELRVARDNGVFGSIDANQGDVLLGWDTDQFPTNIYDTTMCMYEVIKAGGFTNGGLNFDAKARRGSFTPEDIFYSYIAGMDAFALGFRAALKLIEDGRIDKFVADRYASWNTGIGADIIAGKADFASLEKYALEKGEVTASLSSGRQEMLESIVNNVLFSL

Assays:
[1] = target: xylose isomerase; assay: Xylose isomerase assay in the presence of xylitol (inhibition constant); type: biochemical; details: chimeric variants table; inhibitor xylitol
Experimental: Approximately 20 μg of soluble whole cell extract from each transformed cell line, prepared using Y-PER plus reagent as described above, was incubated in a solution containing about 100 mM Tris, pH 7.5, 10 mM MgCl ? 2, 0.15 mM NADH (Sigma, St. Louis, Mo.), and 2 U Sorbitol Dehydrogenase (SDH) (Roche, Indianapolis, Ind.) at about 30° C. […] A Beckman DU-800 spectrophotometer was utilized with an Enzyme Mechanism software package (Beckman Coulter, Inc, Brea, Calif.), and the change in the A340 was monitored for 2-3 minutes.

[2] = Xylose isomerase activity assay (sorbitol dehydrogenase/NADH coupled, Kuyper et al.), soluble whole cell extract; type: biochemical, Saccharomyces cerevisiae
[3] = Heterologous xylose isomerase expression in yeast (active yes/no); type: cell-based, Saccharomyces cerevisiae; details: xylose isomerase of donor organism expressed in engineered yeast (S. cerevisiae)
[4] = test system: Saccharomyces cerevisiae (strain BF903); assay: Industrial yeast strain evaluation: aerobic growth and xylose consumption in YP-xylose; type: cell-based; details: 30° C., 7 days
Experimental: A commercially available industrial diploid strain of Saccharomyces cerevisiae (strain BF903; “Stillspirits” triple distilled yeast, Brewcraft, Albany, New Zealand; available at Hydrobrew, Oceanside, Calif.) was obtained and was made competent for transformation using known yeast cell transformation procedures. […] Transformed yeast containing each construct were grown overnight aerobically in a 15 ml culture tube on YPD media containing 2% glucose. After about 24 hours, about 25 ml of YP media containing 2% glucose and 100 μg/ml G418 was seeded with the cells at an initial OD600 of 0.5 in a 250 ml Erlenmeyer flask and grown aerobically at 30° C. The cultures were then passaged once every 7 days into fresh media, also at an initial OD600 of 0.5.
Measurements were taken of the cell optical density (OD600) to assess cell density and plated onto YPD with 100 μg/ml G418 to ensure that the plasmid was stable. […] The strains were then grown overnight in YPD (with 100 μg/ml G418) and used to inoculate about 50 ml YP-xylose (with 100 μg/ml G418) into disposable 250 ml Erlenmeyer flasks with vented caps at an initial OD600 of about 1. The cultures were allowed to grow aerobically at 30° C. at 200 rpm for 7 days.

[5] = test system: Saccharomyces cerevisiae (strain BF903); assay: Industrial yeast strain evaluation: ethanol production on xylose in sealed serum bottles; type: cell-based; details: strain BF903, YP plus xylose, sealed serum bottle
Experimental: The serum bottles were sealed with a butyl rubber stopper to prevent air exchange. As a result, the cultures became anaerobic once the available oxygen in the serum bottle was utilized. In general, anaerobiosis (e.g., the onset of anaerobic conditions) occurred a few hours after the culture was inoculated. Xylose utilization, ethanol production and cell growth were measured every twenty four hours.

[6] = test system: C5 strain; assay: Xylose fermentation of C5 strain transformed with xylose isomerase constructs; type: cell-based, Saccharomyces cerevisiae
Excerpt: The engineered strain was designed to include the following genetic modifications: the native Pho13 gene (alkaline phosphatase specific for p-nitrophenyl phosphate) was disrupted by inserting a construct containing the native TLK1 gene (Transketolase-1); the native aldose reductase gene (Gre3) was disrupted by inserting a construct containing the native high-affinity glucose transporter-7 gene (HXT7); the native glucose-repressible alcohol dehydrogenase II gene (adh2) was disrupted by inserting a construct containing the native xylulokinase gene (XYLK); and the native orotidine-5′ phosphate decarboxylase gene (ura3) was disrupted by inserting a construct containing the native transaldolase 1 gene (TAL1). The resulting strain had the following genotype: pho13::TKL1, gre3::HXT7, adh-2::XYLK, ura3::TAL1.
The C5 strain was transformed using standard protocols with either p426GPD (as a control) or the chimeric variants XI-R, XI-Rp5, XI-Rp10, or XI-Rp15. The transformed cells were grown on SC-glucose minus uracil initially and then passaged onto SC-xylose minus uracil. Cultures of each of the above constructs were made in SC-xylose minus uracil—and grown for one week. The cultures were grown aerobically at 30° C. with 250 rpm agitation, 1 vvm sparge of process air, 21% O2. The pH was controlled at about 5.0 with 1N NaOH. […] At 24 hours elapsed fermentation time the fermentation was switched to anaerobic conditions. […] Oxygen was purged with 100% N2 sparge at 1 vvm until percent O2 was below 1%. Aeration was then set at 0.25 vvm 100% N2.
The final sample also measured biomass by dry cell weight.

| Molecule | Ki [1] | Specific Activity ([2]; chimeric variants table, xylose 40-500 mM, soluble whole cell extract) | Active? (yes/no) [3] | xylose consumption [4] | Specific Activity ([2]; xylose isomerase expressed in S. cerevisiae, total soluble crude extract, xylose concentrations between 40 and 500 nM (so in the source), Michaelis-Menten plot) | cell growth (cell density) [5] | ethanol production [5] | Dry Cell Wt ([6]; final sample at 372 hours) | Ethanol ([6]; final sample at 372 hours) | Glucose ([6]; final sample at 372 hours) | Xylose ([6]; final sample at 372 hours) | OD600 nm ([6]; final sample at 372 hours after commencing fermentation) |
| --- | --- | --- | --- | --- | --- | --- | --- | --- | --- | --- | --- | --- |
| XI-P: xylose isomerase from Piromyces strain E2, SEQ ID NO: 35 | 4.79 mM | 2.02 µmol/min/mg | Yes |  |  |  |  |  |  |  |  |  |
| B1 |  |  | Yes | more efficient at consuming xylose | 0.9605 µmol/min/mg | grew to a higher cell density | produced more ethanol | 2.20 g/L and 2.03 g/L | 15.65 g/L and 15.5 g/L | 0 g/L | 3.14 g/L and 3.85 g/L | 7.72 and 7.32 |
